In the data set the target is T1, BsSsbA (Bacillus subtilis, UniProt P37455 1-104).
T1 sequence: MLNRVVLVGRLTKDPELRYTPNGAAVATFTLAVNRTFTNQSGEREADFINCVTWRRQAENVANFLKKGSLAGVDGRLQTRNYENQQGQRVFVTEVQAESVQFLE
Put plainly: X-ray crystallography.

Turning to TTTTTTTTTTTTTTTTTTTTTTTTTTTTTTTTTTT (ssDNA) [dT35], the binding result is “binds”.

The record behind these values is paper PMC6331220.
